Measured values from US9060960B2, “Treatment of dissection, aneurysm, and atherosclerosis using granzyme B inhibitors” (The University of British Columbia, priority 2007, dated 2015).
Several values for one entry are separate records, joined by “and”; a condition that tells them apart may be missing. Equal values may be shown once.

How the values were obtained:
[1] = test system: C57, apoE-KO and GrB/apoE-DKO mice; assay: Angiotensin-II infusion aortic dissection model (Example 7); type: in vivo, mouse
Protocol: Aortic dissections were induced with 28 day infusion of 2000 ng/kg/min angiotensin-II dissolved in saline, or placebo, through an ALZET™ osmotic pump (model 1004). The pumps were implanted into the subcutaneous space in the upper dorsal regions through a small incision site at the back of the neck of the anesthetized mouse, and the incision was closed with dissolving sutures. The mice were euthanized by carbon dioxide inhalation followed by cardiac puncture 28-days post implantation. The thoracic cavity and abdominal cavity were then opened, and the circulation perfused with PBS via a cannula placed in the left ventricle, with fluid drained from a severed right atria. Following PBS perfusion, fresh 10% formalin was perfused in the same manner. The heart, kidneys and entire aorta to the iliac bifurcation was then carefully dissected from the animal, and photographed en masse.
Aortic dissections were defined by blood accumulation between the media and outer aortic wall. Mice that were found dead without any preceding signs of suffering were defined as sudden death.

[2] = test system: apoE-KO and GrB/apoE-DKO mice; assay: ApoE-KO model of angiotensin-II-induced AAA (Examples 8-14); type: in vivo, mouse; conditions: for survival to 28 days: chronic angII infusion 1000 ng/min/kg
Source text: All animal protocols were approved by the University of British Columbia (UBC) Animal Care Committee. C57B1/6 mice, C57B1/6-ApoE−/− and C57B1/6-GrB−/− mice were obtained from Jackson Laboratories (Bar Harbor, Me.) ([…] et al. 1992. Proc Natl. Acad Sci 89: 4471-4475; HEUSEL et al 1994 Cell 76:977-987). The C57B1/6-ApoE−/− x GrB−/− double knockout (ApoE/GrB-DKO) mice were generated by crossing the C57B1/6-ApoE−/− and C57B1/6-GrB−/− mouse strains. […] The pups were weaned at 3 weeks of age and then maintained on a 12-hour day and night cycle with food and water provided ad libitum.
ALZET™ osmotic pumps (DURECT Corporation, Cupertino, Calif.) are miniature, implantable pumps commonly used for research in mice and rats. These infusion pumps continuously deliver drugs and other test agents at controlled rates from one day to four weeks without the need for external connections or frequent handling. ALZET™ pumps operate by osmotic displacement. An empty reservoir within the core of the pump is filled with the drug solution to be delivered. Due to the presence of a high concentration of salt in a chamber surrounding the reservoir, water enters the pump through its outer surface. This entry of water increases the volume in the salt chamber, causing compression of the flexible reservoir and delivery of the drug solution into the animal.
Mice were weighed immediately before calculating doses, and the mean weight of mice per group was used. Since mice on a regular diet gain 0.5 g of weight per week, the drug dose was calculated based on the projected mid weight of the experiment (so mice were slightly overdosed for the first two weeks and under-dosed for the final two weeks). The dose was calculated based on the pump fill volume, mean pumping rate, and the midpoint weight of the mice to achieve a value of 1.44 mg/kg/day, (equivalent to 1000 ng/min/kg). To ensure accurate filling, pumps were weighed before and after filling, and a value of 1 mg equal to 1 μL was used when assessing fill volume. […] All pumps and solutions were worked with under sterile conditions. […] All test tubes were placed in the incubator at 37° C. for 24 hours prior to implantation.
On day 1, mice were brought into the GEM micro-procedure room Animals were anesthetised with gaseous anaesthetic at a flow rate of 1.5 L per minute of oxygen with 2.5% of isoflurane delivered via a Baines system using a calibrated tabletop anaesthetic machine, administered from a rodent nose cone. Depth of anaesthesia was monitored by toe pinch response and breathing. Eyes were protected using ocular lubricant. The back of the mouse was shaved, and the legs were taped down. The back of the mouse was then sterilized with 70% ethanol, followed by iodine. The mouse was then moved to the surgical table, so that the dissecting microscope could be utilised.
Under sterile conditions, a lateral incision was made below the scapula, and the skin was blunt dissected from the subcutaneous layer, making a hole large enough to fit the minipump. The minipump was inserted with the flow regulator angled towards the head. Incisions were closed with 2-4 dissolving discontinuous sutures. Isoflurane was then shut off, allowing the mouse to breathe pure oxygen, and a dose of buprenorphine was administered for pain relief After 1 hour, when the mice had recovered from anaesthesia, they were moved back to the animal holding room. The mice were monitored daily for the remainder of the experiment.
Blood was collected by cardiac puncture following CO2 euthanization.

[3] = test system: human coronary artery smooth muscle cells (SMC) matrix; assay: Cleavage of biotinylated SMC extracellular proteins; type: biochemical; conditions: supernatant at 2, 4, 24 hours; insoluble matrix at 24 hours
Protocol: (§1) Extracellular proteins from SMC cultures were biotinylated and incubated with granzyme B. The supernatant was collected at 2, 4 and 24 hours after treatment, and the entire insoluble extracellular protein preparation collected at 24 hours. Extracellular proteins were visualized by Western blot for biotin. Western blot for beta-actin confirmed that the extracellular protein preparation was devoid of intercellular proteins. Western blots for fibronectin, phosphorylated FAK (p-FAK), and FAK were also performed on lysates of SMC treated with granzyme B. In the collected insoluble proteins, four protein bands between approximately 50-70 kDa and approximately 236 kDa disappeared 24 hours after treatment with granzyme B and cleavage of fragments approximately 25-39 kDa were evident in the matrix at this same time point. Further, the six proteins and/or cleavage fragments ranging in molecular weight from approximately 29-148 kDa were eluted into the supernatant as early as two hours after granzyme B treatment. To ensure that the SMC extracellular protein preparations used were devoid of intracellular proteins, Western blotting for beta-actin was performed on the collected supernatant and extracellular proteins. Beta-actin was apparent in SMC lysates (positive control) but was absent from matrix and supernatant preparations.

[4] = test system: human insoluble skin (Sk) elastin; assay: in vitro granzyme B elastin binding assay (skin elastin); conditions: 50, 100, 300 ng granzyme B; 15 μg skin elastin; PBS, 3 hours, room temperature
Protocol: (§2) An in vitro granzyme B elastin binding assay was conducted in the following manner. Granzyme B at 50, 100 and 300 ng was incubated with 15 μg of human insoluble skin (Sk) and aortic (Ao) elastin (Elastin Products Company™, Owensville, Mo.) in PBS for three hours at room temperature. The samples were centrifuged at 1000×g at room temperature for three minutes and the insoluble elastin collected in the pellet. The supernatants, which contained unbound granzyme B, were denatured with SDS loading buffer and run on a 10% SDS-PAGE gel. Granzyme B was detected by Western blot. Each gel contained three lanes: a first lane related to a sample containing granzyme B in the absence of elastin; a second lane related to the samples containing granzyme B and human insoluble skin elastin; and a third lane related to the sample containing granzyme B and aortic elastin. […] This phenomenon was dose-dependent and not restricted to the type of elastin used (i.e. skin elastin or aortic elastin).

[5] = test system: vitronectin; assay: Western blot for vitronectin on granzyme B-treated SMCs; type: biochemical, human; conditions: SMCs treated with granzyme B for 24 hours
Protocol: as §1, with “To ensure that the SMC extracellular protein preparations used were devoid of intracellular proteins, Western blotting for beta-actin was performed on the collected supernatant and extracellular proteins. Beta-actin was apparent in SMC lysates (positive control) but was absent from matrix and supernatant preparations.” left out
(§3) To identify extracellular proteins that are cleaved by granzyme B, western blots for fibronectin, collagen, and vitronectin on lysates from untreated and granzyme B-treated SMCs were performed. […] In the supernatants of granzyme B-treated SMCs at 24 hours, a fibronectin cleavage product was detected. […]

[6] = test system: collagen IV; assay: Western blot for collagen on granzyme B-treated SMCs; type: biochemical, human; conditions: SMCs treated with granzyme B for 24 hours
Protocol: as §1, with “To ensure that the SMC extracellular protein preparations used were devoid of intracellular proteins, Western blotting for beta-actin was performed on the collected supernatant and extracellular proteins. Beta-actin was apparent in SMC lysates (positive control) but was absent from matrix and supernatant preparations.” left out
as §3

[7] = biological target: T1, fibronectin (Homo sapiens, UniProt P02751); assay: Western blot for fibronectin on granzyme B-treated SMCs; type: biochemical; conditions: SMCs treated with granzyme B for 24 hours
T1 construct: endogenous in cells; host or cells: human coronary artery smooth muscle cells
T1 sequence (P02751 32-2477): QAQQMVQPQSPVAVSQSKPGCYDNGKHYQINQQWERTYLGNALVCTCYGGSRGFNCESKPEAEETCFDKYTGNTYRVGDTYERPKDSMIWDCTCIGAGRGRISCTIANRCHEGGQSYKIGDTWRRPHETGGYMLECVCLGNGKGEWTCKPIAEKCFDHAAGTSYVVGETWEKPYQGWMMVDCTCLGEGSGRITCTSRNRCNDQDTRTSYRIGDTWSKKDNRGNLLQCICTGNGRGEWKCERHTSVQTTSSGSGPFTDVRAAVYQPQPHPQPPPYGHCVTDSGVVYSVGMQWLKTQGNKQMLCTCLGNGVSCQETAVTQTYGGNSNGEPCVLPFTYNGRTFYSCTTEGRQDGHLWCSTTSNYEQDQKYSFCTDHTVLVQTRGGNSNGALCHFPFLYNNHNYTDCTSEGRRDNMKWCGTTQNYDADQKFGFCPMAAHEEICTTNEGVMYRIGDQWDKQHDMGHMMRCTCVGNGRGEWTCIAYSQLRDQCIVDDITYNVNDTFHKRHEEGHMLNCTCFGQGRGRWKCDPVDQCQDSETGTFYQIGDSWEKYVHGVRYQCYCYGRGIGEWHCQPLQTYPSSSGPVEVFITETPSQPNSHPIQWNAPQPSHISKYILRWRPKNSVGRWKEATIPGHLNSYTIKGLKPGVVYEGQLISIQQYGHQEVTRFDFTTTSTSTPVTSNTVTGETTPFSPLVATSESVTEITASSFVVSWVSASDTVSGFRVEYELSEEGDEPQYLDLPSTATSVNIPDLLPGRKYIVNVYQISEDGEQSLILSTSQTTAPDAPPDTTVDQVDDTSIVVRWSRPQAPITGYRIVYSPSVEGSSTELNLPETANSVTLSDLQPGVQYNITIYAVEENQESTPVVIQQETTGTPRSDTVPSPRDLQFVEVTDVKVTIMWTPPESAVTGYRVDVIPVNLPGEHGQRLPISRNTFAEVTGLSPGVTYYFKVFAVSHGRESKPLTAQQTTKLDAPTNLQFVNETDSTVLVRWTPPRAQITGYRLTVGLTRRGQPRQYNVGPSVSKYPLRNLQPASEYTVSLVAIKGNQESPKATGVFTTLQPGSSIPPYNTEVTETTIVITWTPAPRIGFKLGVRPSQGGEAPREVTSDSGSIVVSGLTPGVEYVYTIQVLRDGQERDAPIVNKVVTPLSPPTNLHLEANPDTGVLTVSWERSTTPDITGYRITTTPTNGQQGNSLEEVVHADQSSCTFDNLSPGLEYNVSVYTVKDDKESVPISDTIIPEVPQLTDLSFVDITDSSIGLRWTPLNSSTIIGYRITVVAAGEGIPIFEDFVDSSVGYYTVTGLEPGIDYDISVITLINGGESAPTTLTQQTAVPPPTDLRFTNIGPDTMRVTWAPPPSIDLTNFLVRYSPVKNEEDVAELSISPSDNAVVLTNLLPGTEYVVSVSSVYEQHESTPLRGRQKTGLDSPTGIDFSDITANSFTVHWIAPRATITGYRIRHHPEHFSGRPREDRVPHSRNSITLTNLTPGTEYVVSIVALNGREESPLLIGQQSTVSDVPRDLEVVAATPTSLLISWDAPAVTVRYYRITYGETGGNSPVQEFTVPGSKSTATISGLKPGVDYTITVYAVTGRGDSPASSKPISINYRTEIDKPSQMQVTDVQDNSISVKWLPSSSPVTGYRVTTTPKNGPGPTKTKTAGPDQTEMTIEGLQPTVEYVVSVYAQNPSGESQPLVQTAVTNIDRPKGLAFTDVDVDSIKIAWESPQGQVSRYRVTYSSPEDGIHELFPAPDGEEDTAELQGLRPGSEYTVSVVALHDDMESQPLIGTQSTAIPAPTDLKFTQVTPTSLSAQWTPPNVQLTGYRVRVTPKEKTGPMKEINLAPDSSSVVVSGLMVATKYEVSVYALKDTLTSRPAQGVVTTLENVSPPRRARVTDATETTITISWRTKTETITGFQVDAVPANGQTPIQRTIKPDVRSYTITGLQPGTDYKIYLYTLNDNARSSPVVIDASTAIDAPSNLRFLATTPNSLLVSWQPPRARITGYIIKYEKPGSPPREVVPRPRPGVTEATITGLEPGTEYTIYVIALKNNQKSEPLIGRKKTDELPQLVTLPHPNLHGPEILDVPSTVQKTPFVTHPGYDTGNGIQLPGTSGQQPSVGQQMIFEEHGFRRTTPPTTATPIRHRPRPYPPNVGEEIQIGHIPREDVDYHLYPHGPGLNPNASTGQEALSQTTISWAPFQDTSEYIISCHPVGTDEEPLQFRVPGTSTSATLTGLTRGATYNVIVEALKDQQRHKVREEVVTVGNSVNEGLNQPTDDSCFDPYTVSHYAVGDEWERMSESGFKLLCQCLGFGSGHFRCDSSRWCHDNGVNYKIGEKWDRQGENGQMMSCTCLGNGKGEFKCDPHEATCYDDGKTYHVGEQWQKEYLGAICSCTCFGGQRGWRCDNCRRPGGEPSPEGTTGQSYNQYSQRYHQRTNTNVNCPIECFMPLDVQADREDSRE
Protocol: as §1, with “To ensure that the SMC extracellular protein preparations used were devoid of intracellular proteins, Western blotting for beta-actin was performed on the collected supernatant and extracellular proteins. Beta-actin was apparent in SMC lysates (positive control) but was absent from matrix and supernatant preparations.” left out
as §3

[8] = test system: human insoluble aortic (Ao) elastin; assay: in vitro granzyme B elastin binding assay (aortic elastin); conditions: 50, 100, 300 ng granzyme B; 15 μg aortic elastin; PBS, 3 hours, room temperature
Protocol: as §2

[9] = test system: skin elastin (3H-elastin); assay: 3H-elastin cleavage assay (skin elastin); type: biochemical
Protocol: (§4) FIG. 6 Granzyme B degrades elastin in vitro. Granzyme B was incubated with ^3H-elastin for 7 days at room temperature. Elastase was incubated with ^3H-elastin for 2 hours. Supernatants containing the soluble elastin cleavage fragments were collected and counted. Data is represented as fold increase in radioactivity over the control (elastin only). (n=2).
(§5) Tritiated elastin was prepared with the modifications as described in Banda, M. J. and Werb, Z. (1981) Biochem, J. 193: 589-605 and Gordon, S., Werb, Z. and Cohn, Z. A. (1976) in In Vitro Methods in Cell Mediated and Tumor Immunity, eds. Bloom, B. R. and David, J. R. (Academic Press, New York), pages 349-350. 1 mg of skin or aortic elastin was diluted in 1 ml dH2O and pHed to 9.2. 1 mCi NaB3H4 (PerkinElmer™, Waltham Mass.) and 2 mg of […] (Sigma™, St. Louis, Mo.) was added. After 2 hours of incubation, the pH was adjusted to 3.0 and the elastin was incubated for an additional 30 minutes. The elastin was centrifuged for 3 minutes at 5000×g and the pellet was repeatedly washed to remove excess NaB3H4. […] The radioactivity of the soluble, cleaved elastin fragments in the supernatant was counted in Ready Safe Scintillation Fluid (Beckman-Coulter™, Fullerton, Calif.). The radioactivity of the cleaved, soluble elastin fragments was 4.8 times and 2.7 times higher than background for skin and aortic elastin, respectively (FIG. 6).

[10] = biological target: T2, fibrillin-1 (Homo sapiens, UniProt P35555); assay: Fibrillin cleavage on SMC extracellular matrix by Western blot; type: biochemical; conditions: Granzyme B (80 nm) on ECM, 24 hours, room temperature
T2 construct: cells were lysed with NH4OH so that the intact extracellular matrix (ECM) remained on the plate; endogenous in cells; host or cells: human coronary artery smooth muscle cells (decellularised ECM)
Protocol: Human coronary artery smooth muscle cells were cultured to confluency and serum starved for 48 hours at which time cells were lysed with NH4OH so that the intact extracellular matrix (ECM) remained on the plate. Granzyme B (80 nm) was incubated on the ECM for 24 hours at room temperature. Supernatants (containing cleaved ECM) and ECM still attached to the plate were collected and assessed for fibrillin cleavage by Western blot. The arrows in FIG. 7 indicate fibrillin-1 cleavage fragments.

[11] = test system: aortic elastin (3H-elastin); assay: 3H-elastin cleavage assay (aortic elastin); type: biochemical
Protocol: as §4, §5

## angII: angiotensin II from Sigma, infused by osmotic minipump to induce aneurysm and dissection in mice (DRVYIHPF; Angiotensin-2; UniProt P01019 25-32, looked up)
[1]; apoE-KO mice, 2000 ng/kg/min infusion, four of eight
  sudden death before the 28-day time point: 50%
[1]; apoE-KO mice, 2000 ng/kg/min, 28 day infusion, seven of eight
  mice that developed aortic dissections or succumbed to sudden death: 87.5%
[1]; wildtype and GrB/apoE-DKO mice, 2000 ng/kg/min, 28 day infusion
  aortic dissections: none developed aortic dissections
[1]; wildtype mice, 2000 ng/kg/min, 28 day infusion
  sudden death: zero of six
[2]; 28 days, significant only for apoE-KO thoracic samples (p<0.05)
  medial thickness of thoracic and abdominal aortas versus saline: trend for medial thickness to increase
[2]; GrB/apoE-DKO mice (n=15)
  survival to 28 days: 86.67%
[2]; GrB/apoE-DKO mice surviving to 28 days
  Weight change: -0.3 g
[2]; GrB/apoE-DKO mice, n at 0 days 15
  n at 28 days: 13
[2]; GrB/apoE-DKO surviving mice, day 28
  mice with small abdominal aortic aneurysm (AAA): 30%
[2]; apoE-KO mice (n=16)
  survival to 28 days: 56.25% and 53%
[2]; apoE-KO mice surviving to 28 days
  Weight change: 1.0 g
[2]; apoE-KO mice, 28 days, one-way ANOVA/Dunn's, p<0.05
  abdominal aortic lumen area versus saline: statistically significant increase
[2]; apoE-KO mice, n at 0 days 16
  n at 28 days: 9
[2]; apoE-KO surviving mice, day 28
  gross pathological outcome: developed aortic dissections
[2]; either genotype, angII versus saline, 28 days, p>0.05
  percent aortic root lumen covered by plaque: No significant difference

## granzyme B: serine protease; the patent's target enzyme, tested for binding and cleavage of extracellular matrix proteins
[3]
  cleavage of extracellular proteins (Western blot for biotin): induced a cleavage of a number of extracellular proteins
[4]
  unbound granzyme B band in supernatant (Western blot) versus sample without elastin: dramatically less pronounced
[5]
  cleavage of vitronectin: no cleavage
[6]
  cleavage of collagen IV: no cleavage
[7]
  fibronectin in SMC lysates (Western blot): reduction in the total amount of fibronectin
[8]
  unbound granzyme B band in supernatant (Western blot): No band appeared
[9]; skin 3H-elastin 0.15 mg, granzyme B 0.75 μg added 5 times, room temperature, 7 days
  radioactivity of the cleaved, soluble elastin fragments: 4.8 times higher than background
[10]
  fibrillin-1 cleavage (Western blot): cleaves fibrillin-1
[11]; aortic 3H-elastin 0.15 mg, granzyme B 0.75 μg added 5 times, room temperature, 7 days
  radioactivity of the cleaved, soluble elastin fragments: 2.7 times higher than background

## elastase
[9]; skin elastin, 25 μg elastase, 2 hours, positive control
  radioactivity increase over background: 14.9 fold
[11]; aortic elastin, 25 μg elastase, 2 hours, positive control
  radioactivity increase over background: 7.7 fold
